Results from patent publication US20240059769A1 (BIOLOJIC DESIGN, published 2024).
Read-outs that look alike come from different tables or passages of the source. One block for each binder: values may come before it.

Tests used:
human TSLP [1] = biological target: T1, human TSLP (human, UniProt Q969D9 29-159); experiment: SPR
T1 construct: also called hTSLP; rhTSLP

recombinant human IL-13 [2] = biological target: T2, recombinant human IL-13 (human, UniProt P35225 35-146); experiment: SPR
T2 construct: also called rh-IL-13; hIL-13
T2 sequence (P35225 35-146 limits assumed): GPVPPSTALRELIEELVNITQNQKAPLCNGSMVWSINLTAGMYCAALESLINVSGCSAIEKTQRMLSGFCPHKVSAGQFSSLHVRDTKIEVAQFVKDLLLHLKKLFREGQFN

[3] = biological target: T3, recombinant cynomolgus monkey IL-13 (cynomolgus monkey, UniProt Q0PW92 21-132); experiment: SPR
T3 construct: bought; also called rc-IL-13; cIL-13
T3 sequence (Q0PW92 entry or part of it): as the sequence (P35225 35-146 limits assumed) above, with G1S, R10K, M42V, S67N, H83R, L100V counted along it

recombinant human IL-13 [4] = biological target: T2, recombinant human IL-13; experiment: cell-based or functional assay
hTSLP-His [5] = biological target: T4, hTSLP-His (human, UniProt Q969D9 29-159, limits assumed); experiment: cell-based or functional assay
human TSLP [6] = biological target: T1, human TSLP; experiment: SPR (Biacore T200), antibody captured, cytokine analyte 30-0.153 nM
Experimental: CMS chip was coated with human antibody capture kit to obtain 3000-5000 RU and the antibody, served as the capture, was injected at a flow rate of 10 ul/ml to obtain 250-350 RU.

human TSLP [7] = biological target: T1, human TSLP; experiment: cell-based or functional assay
recombinant human IL-13 [8] = biological target: T2, recombinant human IL-13; experiment: cell-based or functional assay; remark: listed apart in the source
[9] = biological target: T5, cynomolgus monkey (cyno) TSLP (cynomolgus monkey, UniProt A0A7N9CAT7 29-159); experiment: SPR
T5 construct: also called cTSLP; cynomolgus TSLP
T5 sequence (A0A7N9CAT7 entry or part of it): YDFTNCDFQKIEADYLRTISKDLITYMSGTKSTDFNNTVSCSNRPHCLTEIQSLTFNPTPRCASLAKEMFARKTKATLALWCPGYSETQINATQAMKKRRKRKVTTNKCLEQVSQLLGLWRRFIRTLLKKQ

hTSLP-His [10] = biological target: T4, hTSLP-His; experiment: competition ELISA: antibody titrated and pre-incubated with 7 nM TSLP-His, then on a plate coated with 33.001 (Tezepelumab), anti-His detection; row head on the sheet reads EC50, unit from the axis
recombinant human IL-13 [11] = biological target: T2, recombinant human IL-13; experiment: SPR (Biacore T200), antibody captured, hIL-13 as analyte 0.35-5.93 nM
[12] = biological target: T5, cynomolgus monkey (cyno) TSLP; experiment: SPR; remark: listed apart in the source
[13] = biological target: T3, recombinant cynomolgus monkey IL-13; experiment: SPR; remark: listed apart in the source
human TSLP [14] = biological target: T1, human TSLP; experiment: SPR (Biacore T200), antibody captured, hTSLP as analyte 0.231-5.926 nM
hTSLP-His [15] = biological target: T4, hTSLP-His; experiment: competition ELISA, 7 nM TSLP-His pre-incubated with antibody; competitor Tezepelumab coated
hTSLP-His [16] = biological target: T4, hTSLP-His; experiment: cell-based or functional assay; remark: listed apart in the source
human TSLP [17] = biological target: T1, human TSLP; experiment: SPR; remark: listed apart in the source
recombinant human IL-13 [18] = biological target: T2, recombinant human IL-13; experiment: SPR; remark: listed apart in the source
human TSLP [19] = biological target: T1, human TSLP; experiment: SPR (ProteOn XPR36), antibody captured, hTSLP analyte 3.2-0.2 nM
recombinant human IL-13 [20] = biological target: T2, recombinant human IL-13; experiment: SPR, steady state, antibody captured, hIL-13 analyte
Experimental: Subsequent to a cycle, the analyte and tested antibody were stripped from the chip and new tested Ab was loaded on the chip as described above. KD was determined at a steady state condition.

- Kd (human TSLP [1]): 0.0127 pM
- koff (human TSLP [1]): 1.82e-07 s⁻¹
- kon (human TSLP [1]): 1.44e+07 M⁻¹ s⁻¹
- Kd (recombinant human IL-13 [2]): 13.8 pM
- koff (recombinant human IL-13 [2]): 9.36e-05 s⁻¹
- kon (recombinant human IL-13 [2]): 6.77e+06 M⁻¹ s⁻¹
- Kd [3]: 270 pM
- koff [3]: 0.006 s⁻¹
- kon [3]: 2.22e+07 M⁻¹ s⁻¹
- HEK-IL-13 [nM] (IC50, STAT6 reporter) (recombinant human IL-13 [4]): 0.0487 nM
- IC50 [pM], STAT5 phosphorylation inhibition in MUTZ5 cells (hTSLP-His [5]): 27.2 pM
- Kd (human TSLP [6]): < 1 pM
- IC50 TARC (human TSLP [7]): 356 pM
- IC50 CD23 (recombinant human IL-13 [8]): 172 pM
- Kd [9]: 2.75 pM
- koff [9]: 3.18e-05 s⁻¹
- kon [9]: 1.16e+07 M⁻¹ s⁻¹
B1: BDG38.094 (antibody, V domains shown)
VH: QMQLVESGGGVVQPGRSLRLSCAASGFAFRTYGMHWVRQAPGKGLEWVAVIWDDGSNTHYADSVKGRFTITRDNSKNTLNLQMNSLRAEDTAVYYCVRAPQWYLTAEAFDLWGQGTMVTVSS
VL: SYVLTQPPSVSVAPGETASITCGGNLIGAYLVHWYQQKPGQAPLLVIYDDVDRPARIPERFSGSNSGNTATLTISRVEAGDEADYYCQVWDHNSNHMVFGGGTKLTVL
notes: IgG1

- IC50 (hTSLP-His [10]): 3660 pM
- HEK-IL-13 [nM] (IC50, STAT6 reporter) (recombinant human IL-13 [4]): 0.0241 nM
- IC50 [pM], STAT5 phosphorylation inhibition in MUTZ5 cells (hTSLP-His [5]): 46.7 pM
- Kd (recombinant human IL-13 [11]): 29.5 pM
- koff (recombinant human IL-13 [11]): 0.000249 s⁻¹
- kon (recombinant human IL-13 [11]): 8.43e+06 M⁻¹ s⁻¹
- IC50 TARC (human TSLP [7]): 2770 pM
- IC50 CD23 (recombinant human IL-13 [8]): 158 pM
- Kd [12]: 4.16 pM
- koff [12]: 4.6e-05 s⁻¹
- kon [12]: 1.11e+07 M⁻¹ s⁻¹
- Kd [13]: 733 pM
- koff [13]: 0.00644 s⁻¹
- kon [13]: 8.78e+06 M⁻¹ s⁻¹
- Kd (human TSLP [14]): 3.34 pM
- koff (human TSLP [14]): 5.05e-05 s⁻¹
- kon (human TSLP [14]): 1.51e+07 M⁻¹ s⁻¹
- IC50 (hTSLP-His [15]): 3660 pM
- IC50, pSTAT5 in MUTZ-5 cell line (hTSLP-His [16]): ~35 pM
- Kd (human TSLP [17]): 3.34 pM
- koff (human TSLP [17]): 5.05e-05 s⁻¹
- kon (human TSLP [17]): 1.51e+07 M⁻¹ s⁻¹
- Kd (recombinant human IL-13 [18]): 29.5 pM
- koff (recombinant human IL-13 [18]): 0.000249 s⁻¹
- kon (recombinant human IL-13 [18]): 8.43e+06 M⁻¹ s⁻¹
B2: BDG38.074 (antibody, V domains shown)
VH: QMQLVESGGGVVQPGRSLRLSCAASGFAFRTYGMHWVRQAPGKGLEWVAVIWDDGSNTHYADSVKGRFTITRDNSKNTLNLQMNSLRAEDTAVYYCVRAPQWYLTAEAFDLWGQGTMVTVSS
VL: SYVLTQPPSVSVAPGQTATITCGGNMIGAYLVHWYQQKPGQAPLLVVYDDVDRPNRIPERFSGSNSGNTATLTISRVEAGDEADYYCQVWDHNTDKMVFGGGTKLTVL
notes: also called BDG38.74

- Kd (human TSLP [19]): 3330 pM
- koff (human TSLP [19]): 0.00114 s⁻¹
- kon (human TSLP [19]): 344000 M⁻¹ s⁻¹
- Kd (recombinant human IL-13 [20]): 57400 pM
B3: BDG33.004 (antibody, V domains shown)
VH: QMQLVESGGGVVQPGRSLRLSCAASGFTFRTYGMHWVRQAPGKGLEWVAVIWYDGSNKHYADSVKGRFTITRDNSKNTLNLQMNSLRAEDTAVYYCARAPQWMLVAEAFDLWGQGTMVTVSS
VL: SYVLTQPPSVSVAPGQTARITCGGNLIGSKLVHWYQQKPGQAPVLVVYDDSDRPSRIPERFSGSNSGNTATLTISRVEAGDEADYYCQVWDSSSDHVVFGGGTKLTVL
notes: human IgG1, lambda light chain; also called BGD33.004; Clone C6 (as IgG1)
